Series [1] deals with T1, EhRNaseIII229 (Entamoeba histolytica, UniProt C4LU64 2-229).
T1 sequence: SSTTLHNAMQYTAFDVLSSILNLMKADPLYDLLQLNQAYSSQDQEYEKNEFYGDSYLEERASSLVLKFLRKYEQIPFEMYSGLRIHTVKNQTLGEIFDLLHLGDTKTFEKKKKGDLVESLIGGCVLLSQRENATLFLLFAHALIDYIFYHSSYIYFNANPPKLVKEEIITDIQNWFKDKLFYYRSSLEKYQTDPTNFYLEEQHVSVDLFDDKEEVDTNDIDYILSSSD
In words: EMSA; 5 mM Mg2+; EMSA (1x): 30 mM Tris-HCl pH 7.5, 30 mM NaCl, 5 mM MgCl2, 1 mM DTT, 0.1 mM EDTA, 5% glycerol; room temperature 10 min then ice 20 min; 6% native PAGE, 0.5x TBE. Conditions: protein: recombinant; tags: His-Sumo removed by Ulp1; chain copies: 2; blunt, 25 bp.

Series [2] concerns the target T2, EhRNaseIII256 (full-length EhRNaseIII) (Entamoeba histolytica, UniProt C4LU64 2-256).
T2 sequence: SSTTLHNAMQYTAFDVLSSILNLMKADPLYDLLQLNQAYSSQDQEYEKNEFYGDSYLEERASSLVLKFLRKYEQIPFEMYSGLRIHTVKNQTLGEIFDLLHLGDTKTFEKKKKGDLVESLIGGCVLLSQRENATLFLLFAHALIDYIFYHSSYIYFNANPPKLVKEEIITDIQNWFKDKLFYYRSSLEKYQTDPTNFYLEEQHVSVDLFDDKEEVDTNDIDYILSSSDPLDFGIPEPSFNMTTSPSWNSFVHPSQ
The description is as above. Conditions: protein: recombinant, tags: His-Sumo removed by Ulp1, chain copies: 2, blunt.

Series [3] has as its target T3, EhRNaseIII194 (Entamoeba histolytica, UniProt C4LU64 2-194).
T3 sequence: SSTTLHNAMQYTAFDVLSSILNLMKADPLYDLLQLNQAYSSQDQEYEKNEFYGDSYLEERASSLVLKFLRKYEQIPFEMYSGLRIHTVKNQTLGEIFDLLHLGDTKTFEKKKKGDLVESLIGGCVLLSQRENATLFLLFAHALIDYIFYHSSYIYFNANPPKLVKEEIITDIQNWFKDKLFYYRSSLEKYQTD
In words: EMSA; 5 mM Mg2+; up to 1e-3 M; EMSA (1x): 30 mM Tris-HCl pH 7.5, 30 mM NaCl, 5 mM MgCl2, 1 mM DTT, 0.1 mM EDTA, 5% glycerol; room temperature 10 min then ice 20 min; 6% native PAGE, 0.5x TBE. The settings on record: protein: recombinant; tags: His-Sumo removed by Ulp1; chain copies: 2; blunt, 25 bp.

Series [4] concerns the target T1, EhRNaseIII229. The series is described as above. The settings on record: protein: recombinant, tags: His-Sumo removed by Ulp1, chain copies: 2, blunt.
In series [5] the target is T2, EhRNaseIII256 (full-length EhRNaseIII). The description is as above. The settings on record: protein: recombinant, tags: His-Sumo removed by Ulp1, chain copies: 2, blunt.
In series [6] the target is T3, EhRNaseIII194. In words: EMSA; 5 mM Mg2+; binds at 1e-4 M; EMSA (1x): 30 mM Tris-HCl pH 7.5, 30 mM NaCl, 5 mM MgCl2, 1 mM DTT, 0.1 mM EDTA, 5% glycerol; room temperature 10 min then ice 20 min; 6% native PAGE, 0.5x TBE. Conditions: protein: recombinant; tags: His-Sumo removed by Ulp1; chain copies: 2; blunt, 70 bp.
Series [7] concerns the molecule itself. In words: crystal structure; SeMet-EhRNaseIII194, hanging drop, 16 °C, 1.26 M (NH4)2SO4, 0.1 M Hepes pH 7.8; P212121, SAD phasing, 2.10 Å.
Series [8] concerns the molecule itself. In words: crystal structure; EhRNaseIII229, sitting drop, 16 °C, 1.6 M (NH4)2SO4, 0.02 M MgCl2, 0.05 M Tris-HCl pH 7.5; apo (1.90 Å) and soaked with 10 mM MnCl2 (2.05 Å); P212121, molecular replacement.
Series [9] concerns the target T3, EhRNaseIII194. In words: EMSA; 5 mM Mg2+; shift at 5e-5 M; EMSA (1x): 30 mM Tris-HCl pH 7.5, 30 mM NaCl, 5 mM MgCl2, 1 mM DTT, 0.1 mM EDTA, 5% glycerol; room temperature 10 min then ice 20 min; 6% native PAGE, 0.5x TBE. Conditions: protein: recombinant; tags: His-Sumo removed by Ulp1; chain copies: 2; blunt, 100 bp.
The target of series [10] is T1, EhRNaseIII229. Description: EMSA; 5 mM Mg2+; almost complete shift at 3e-4 M; EMSA (1x): 30 mM Tris-HCl pH 7.5, 30 mM NaCl, 5 mM MgCl2, 1 mM DTT, 0.1 mM EDTA, 5% glycerol; room temperature 10 min then ice 20 min; 6% native PAGE, 0.5x TBE. Conditions: protein: recombinant; tags: His-Sumo removed by Ulp1; chain copies: 2; blunt, 100 bp.

B1: RNA25 (dsRNA)
RNA 1: GGGAGAAACGCGGCCUCUUUCUCCC
RNA 2: GGGAGAAAGAGGCCGCGUUUCUCCC
For B1, the binding result (with EhRNaseIII229 [1]; in series [2] (25 bp); with EhRNaseIII194 [3]) was “no binding” in each case.

B2: RNA50 (dsRNA)
RNA 1: GGGAGAAACGCGGCCUCUUCUUAUUUAUGGCGACAUGUUGUGCCUCUCCC
RNA 2: GGGAGAGGCACAACAUGUCGCCAUAAAUAAGAAGAGGCCGCGUUUCUCCC
On to B2, for which the binding result (with EhRNaseIII229 [4] (50 bp); in series [5] (50 bp)) was “no binding” throughout.

B3: RNA70 (dsRNA)
RNA 1: GGGAGAAACGCGGCCUCUUCUUAUUUAUGGCGACAUGUUGUGCCACAUAUUGAGCCAGUAGCGCUCUCCC
RNA 2: GGGAGAGCGCUACUGGCUCAAUAUGUGGCACAACAUGUCGCCAUAAAUAAGAAGAGGCCGCGUUUCUCCC
Regarding B3, the binding result was “no binding” with EhRNaseIII229 [4] (70 bp), “no binding” in [5] (70 bp) and “binds” with EhRNaseIII194 [6].

B4: SeMet-EhRNaseIII194 (selenomethionine-labeled EhRNaseIII, aa 1-194) (domain or fragment, Entamoeba histolytica, UniProt C4LU64 1-194, looked up)
chain: MSSTTLHNAMQYTAFDVLSSILNLMKADPLYDLLQLNQAYSSQDQEYEKNEFYGDSYLEERASSLVLKFLRKYEQIPFEMYSGLRIHTVKNQTLGEIFDLLHLGDTKTFEKKKKGDLVESLIGGCVLLSQRENATLFLLFAHALIDYIFYHSSYIYFNANPPKLVKEEIITDIQNWFKDKLFYYRSSLEKYQTD
modifications: selenomethionine substituted (Se-Met) for methionine
notes: EhRNaseIII, the only RNaseIII protein of Entamoeba histolytica (256 aa), aa 1-194 (CTR truncated); Cloned from E. histolytica cDNA into pET28-Sumo; also called EhRNase194; SeMet-RNaseIII194; source: E. coli BL21(DE3) in M9 medium with Se-Met, purified (HisTrap, Ulp1 digestion, HisTrap, HiTrap Q, Superdex 75); not shown: His-Sumo, N-terminal, cleaved
With B4, in series [7], the “stoichiometry N” value turned out to be 2.

B5: EhRNaseIII229 (EhRNaseIII aa 1-229) (domain or fragment, Entamoeba histolytica, UniProt C4LU64 1-229, looked up)
chain: MSSTTLHNAMQYTAFDVLSSILNLMKADPLYDLLQLNQAYSSQDQEYEKNEFYGDSYLEERASSLVLKFLRKYEQIPFEMYSGLRIHTVKNQTLGEIFDLLHLGDTKTFEKKKKGDLVESLIGGCVLLSQRENATLFLLFAHALIDYIFYHSSYIYFNANPPKLVKEEIITDIQNWFKDKLFYYRSSLEKYQTDPTNFYLEEQHVSVDLFDDKEEVDTNDIDYILSSSD
notes: EhRNaseIII, the only RNaseIII protein of Entamoeba histolytica (256 aa), aa 1-229 (CTR truncated); Cloned from E. histolytica cDNA into pET28-Sumo; Residues after about 195 were disordered in the crystal; also called EhRNase229; source: E. coli BL21(DE3), purified (HisTrap, Ulp1 digestion, HisTrap, HiTrap Q, Superdex 75); not shown: His-Sumo, N-terminal, cleaved
For the molecule B5, in series [8], the “stoichiometry N” value was determined as 2.

B6: RNA100 (dsRNA)
RNA 1: GGGAGAAACGCGGCCUCUUCUUAUUUAUGGCGACAUGUUGUGCCACAUAUUGAGCCAGUAGCGCGGUGUAUUAUACCAGACCUUAUUGGUAUGGUCUCCC
RNA 2: GGGAGACCAUACCAAUAAGGUCUGGUAUAAUACACCGCGCUACUGGCUCAAUAUGUGGCACAACAUGUCGCCAUAAAUAAGAAGAGGCCGCGUUUCUCCC
For B6, in series [2] (100 bp), the Kd is ~600 µM. Moreover, the figures for the binding signal in the series with EhRNaseIII194 [9] and with EhRNaseIII229 [10] were ~6 fold affinity vs EhRNaseIII256 (2-fold vs EhRNaseIII229) and > 2 fold affinity vs EhRNaseIII256 (at least), respectively.

The values are drawn from article PMC5357909, “Structural and functional studies of a noncanonical Dicer from Entamoeba histolytica” (Scientific Reports, 2017).
